Where no end group is shown, it is not given here.
B1: Phage-2497 (peptide)
peptide: WPKLCTPPWMCTVD
modifications: cysteine pairing not given here; also: displayed on phage as fusion to pIII, pIII and linker sequence not given here
notes: not shown: fused to pIII of the bacteriophage
B2: Phage-2500 (peptide)
peptide: GTNWCKPDWMCVGL
modifications: cysteine pairing not given here; also: displayed on phage as fusion to pIII, pIII and linker sequence not given here
notes: as for B1
B3: Phage-2503 (peptide)
peptide: SETWCIPAWMCLDG
modifications: cysteine pairing not given here; also: displayed on phage as fusion to pIII, pIII and linker sequence not given here
notes: as for B1
B4: Phage-2505 (peptide)
peptide: LGKWCIPDWMCSGL
modifications: cysteine pairing not given here; also: displayed on phage as fusion to pIII, pIII and linker sequence not given here
notes: as for B1
B5: Phage-2502 (peptide)
peptide: EPKMCTPSWMCRGF
modifications: cysteine pairing not given here; also: displayed on phage as fusion to pIII, pIII and linker sequence not given here
notes: as for B1
B6: Phage-2507 (peptide)
peptide: VERLCKPLWMCQER
modifications: cysteine pairing not given here; also: fused to phage pIII, linker and fusion site not given here
notes: as for B1
B7: Phage-2506 (peptide)
peptide: VQMLCIPAWMCGME
modifications: cysteine pairing not given here; also: displayed on phage as fusion to pIII, pIII and linker sequence not given here
notes: as for B1
B8: Phage-2501 (peptide)
peptide: SDKWCIPVWMCEES
modifications: cysteine pairing not given here; also: displayed on phage as fusion to pIII, pIII and linker sequence not given here
notes: as for B1
B9: Phage-2498 (peptide)
peptide: GEHWCIPAWMCEKM
modifications: cysteine pairing not given here; also: displayed on phage as fusion to pIII, pIII and linker sequence not given here
notes: as for B1
B10: Phage-2499 (peptide)
peptide: GEKWCIPEWMCQDV
modifications: cysteine pairing not given here; also: displayed on phage as fusion to pIII, pIII and linker sequence not given here
notes: as for B1
B11: Phage-2504 (peptide)
peptide: IPKWCTPSWMCEWV
modifications: cysteine pairing not given here; also: displayed on phage as fusion to pIII, pIII and linker sequence not given here
notes: as for B1
B12: Phage-2487 (peptide)
peptide: DYKWCTPIWMCAGD
modifications: cysteine pairing not given here; also: displayed on phage as fusion to pIII, pIII and linker sequence not given here
notes: Clonal phage of the peptide-180 library; not shown: pIII filament protein of the bacteriophage to which the peptide is fused
B13: Phage-2494 (peptide)
peptide: HFKMCVPPWMCLFD
notes: as for B12
B14: Phage-2485 (peptide)
peptide: VSPLCKPDWMCNGF
notes: as for B12
B15: Phage-2496 (peptide)
peptide: ESRLCIPAWMCESQ
notes: as for B12
B16: Phage-2483 (peptide)
peptide: DSRWCIPDWMCELE
notes: as for B12
B17: Phage-2486 (peptide)
peptide: FPHLCIPYWMCVRT
notes: as for B12
B18: Phage-2484 (peptide)
peptide: LVRWCVPEWMCAGM
modifications: cysteine pairing not given here; also: displayed on phage as fusion to pIII, pIII and linker sequence not given here
notes: as for B12
B19: Phage-2490 (peptide)
peptide: DFKWCTPPWMCDVF
notes: as for B12
B20: Phage-2493 (peptide)
peptide: MGNWCTPPWMCTGF
notes: as for B12
B21: Phage-2491 (peptide)
peptide: SVKWCTPSWMCEHM
notes: as for B12
B22: Phage-2492 (peptide)
peptide: IEKMCIPAWMCTDK
notes: as for B12
B23: Phage-2488 (peptide)
peptide: VSIWCIPPWMCVEK
notes: as for B12
B24: Phage-2482 (peptide)
peptide: VVNWCTPAWMCSGF
modifications: cysteine pairing not given here; also: displayed on phage as fusion to pIII, pIII and linker sequence not given here
notes: as for B12
B25: Phage-2489 (peptide)
peptide: WAKWCTPEWMCVVH
notes: as for B12
B26: Phage-2495 (peptide)
peptide: LEKWCIPLWMCQTA
notes: as for B12

These binders were tested against T1, PSMA Fab (biotinylated (site not stated)) (assay: clonal phage ELISA; biotinylated PSMA Fab on neutravidin plate; anti-M13 HRP detection; blocking buffer alone).
T1 construct: Biotinylated PSMA Fab captured on neutravidin plates in the phage ELISA; also called Anti-PSMA Fab; 006 PSMA Fab
In the case of YEKWCTPTWMCSWL [Phage-2446], the “Phage binding ELISA signal, Anti-PSMA Fab” value is reported as 1.29.
In the case of EVKWCIPAWMCVED [Phage-2444], the “Phage binding ELISA signal, Anti-PSMA Fab” value is reported as 1.3.
GAIWCIPQWMCAWN (cysteine pairing not given here; also: displayed as fusion to phage pIII) [Phage-2443] was tested, and the “Phage binding ELISA signal, Anti-PSMA Fab” value was 1.3.
For VVKWCTPPWMCSVW [Phage-2450], the “Phage binding ELISA signal, Anti-PSMA Fab” value was 1.29.
For ESKWCIPEWMCEQR [Phage-2448], the “Phage binding ELISA signal, Anti-PSMA Fab” value was 1.29.
EEPWCIPSWMCALT (cysteine pairing not given here; also: displayed as fusion to phage pIII) [Phage-2449] was tested, and the “Phage binding ELISA signal, Anti-PSMA Fab” value was 1.29.
LERWCIPSWMCTED [Phage-2445] was tested, and the “Phage binding ELISA signal, Anti-PSMA Fab” value was 1.3.
In the case of IEKWCTPPWMCLDH [Phage-2447], the “Phage binding ELISA signal, Anti-PSMA Fab” value is reported as 1.29.

Each binder was assayed against T2, 006 PSMA Fab (biotinylated (site not given)) (assay: clonal phage ELISA, biotinylated PSMA Fab on neutravidin plate, anti-M13 HRP detection;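 also: crude clonal phage supernatants added to wells pretreated with blocking buffer either with or without PSMA antigen, bound phage read after washing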).
T2 construct: Biotinylated PSMA Fab captured on neutravidin coated plates for the clonal phage ELISA; also called Anti-PSMA Fab
In the case of B1, the “Phage binding ELISA signal, Anti-PSMA Fab” value is reported as 1.21.
For B2, the “Phage binding ELISA signal, Anti-PSMA Fab” value was 1.21.
In the case of B3, the “Phage binding ELISA signal, Anti-PSMA Fab” value is reported as 1.2.
In the case of B4, the “Phage binding ELISA signal, Anti-PSMA Fab” value is reported as 1.2.
For B5, the “Phage binding ELISA signal, Anti-PSMA Fab” value was 1.2.
For B6, the “Phage binding ELISA signal, Anti-PSMA Fab” value was 1.2.
B7 was tested, and the “Phage binding ELISA signal, Anti-PSMA Fab” value was 1.2.
In the case of B8, the “Phage binding ELISA signal, Anti-PSMA Fab” value is reported as 1.21.
With B9 the “Phage binding ELISA signal, Anti-PSMA Fab” value was 1.21.
B10 was tested, and the “Phage binding ELISA signal, Anti-PSMA Fab” value was 1.21.
In the case of B11, the “Phage binding ELISA signal, Anti-PSMA Fab” value is reported as 1.2.

These binders were tested against T3, 006 PSMA Fab (assay: phage ELISA: biotinylated PSMA Fab on neutravidin plate pre-incubated with PSMA antigen (competitor), clonal phage supernatant, anti-M13-HRP detection).
T3 construct: also called Anti-PSMA Fab; anti-PSMA Fab
Method: (§1) Clonal phage were harvested as crude supernatants and screened via standard ELISAs. […] Prior to the addition of clonal phage. wells were incubated with blocking buffer and PSMA antigen or blocking buffer alone. Without washing or aspirating, clonal phage supernatants were then added to the wells and incubated for a short time. Wells were then washed followed by detection of bound phage using a horse radish conjugated anti-M13 antibody.
In the case of B12, the “phage binding ELISA signal in presence of PSMA antigen” value is reported as 0.0707.
For B13, the “phage binding ELISA signal in presence of PSMA antigen” value was 0.101.
For B14, the “phage binding ELISA signal in presence of PSMA antigen” value was 0.0787.
With B15 the “phage binding ELISA signal in presence of PSMA antigen” value was 0.0772.
In the case of B16, the “phage binding ELISA signal in presence of PSMA antigen” value is reported as 0.0935.
For B17, the “phage binding ELISA signal in presence of PSMA antigen” value was 0.198.
In the case of B18, the “phage binding ELISA signal in presence of PSMA antigen” value is reported as 0.0945.
With B19 the “phage binding ELISA signal in presence of PSMA antigen” value was 0.0763.
In the case of B20, the “phage binding ELISA signal in presence of PSMA antigen” value is reported as 0.0704.
For B21, the “phage binding ELISA signal in presence of PSMA antigen” value was 0.0739.
For B22, the “phage binding ELISA signal in presence of PSMA antigen” value was 0.0698.
With B23 the “phage binding ELISA signal in presence of PSMA antigen” value was 0.101.
For B24, the “phage binding ELISA signal in presence of PSMA antigen” value was 0.0652.
B25 was tested, and the “phage binding ELISA signal in presence of PSMA antigen” value was 0.15.
With B26 the “phage binding ELISA signal in presence of PSMA antigen” value was 0.0777.

These binders were tested against T3, 006 PSMA Fab (assay: phage ELISA: biotinylated PSMA Fab on neutravidin plate, clonal phage supernatant, anti-M13-HRP detection; blocking buffer alone).
Method: as §1
B12 was tested, and the “phage binding ELISA signal” value was 1.22.
B13 was tested, and the “phage binding ELISA signal” value was 1.22.
In the case of B14, the “phage binding ELISA signal” value is reported as 1.22.
In the case of B15, the “phage binding ELISA signal” value is reported as 1.22.
With B16 the “phage binding ELISA signal” value was 1.23.
With B17 the “phage binding ELISA signal” value was 1.22.
In the case of B18, the “phage binding ELISA signal” value is reported as 1.22.
For B19, the “phage binding ELISA signal” value was 1.22.
For B20, the “phage binding ELISA signal” value was 1.22.
In the case of B21, the “phage binding ELISA signal” value is reported as 1.22.
B22 was tested, and the “phage binding ELISA signal” value was 1.22.
With B23 the “phage binding ELISA signal” value was 1.22.
In the case of B24, the “phage binding ELISA signal” value is reported as 1.23.
With B25 the “phage binding ELISA signal” value was 1.22.
For B26, the “phage binding ELISA signal” value was 1.22.

These binders were tested against T2, 006 PSMA Fab (assay: clonal phage ELISA on plate-bound PSMA Fab, competitor: PSMA antigen pre-incubated in the wells).
Method: as §1
B1 was tested, and the “Phage binding ELISA signal, Anti-PSMA Fab in presence of PSMA” value was 0.0722.
B2 was tested, and the “Phage binding ELISA signal, Anti-PSMA Fab in presence of PSMA” value was 0.0855.
B3 was tested, and the “Phage binding ELISA signal, Anti-PSMA Fab in presence of PSMA” value was 0.0745.
With B4 the “Phage binding ELISA signal, Anti-PSMA Fab in presence of PSMA” value was 0.144.
With B5 the “Phage binding ELISA signal, Anti-PSMA Fab in presence of PSMA” value was 0.0691.
For B6, the “Phage binding ELISA signal, Anti-PSMA Fab in presence of PSMA” value was 0.0748.
With B7 the “Phage binding ELISA signal, Anti-PSMA Fab in presence of PSMA” value was 0.107.
B8 was tested, and the “Phage binding ELISA signal, Anti-PSMA Fab in presence of PSMA” value was 0.0874.
In the case of B9, the “Phage binding ELISA signal, Anti-PSMA Fab in presence of PSMA” value is reported as 0.0615.
In the case of B10, the “Phage binding ELISA signal, Anti-PSMA Fab in presence of PSMA” value is reported as 0.0722.
For B11, the “Phage binding ELISA signal, Anti-PSMA Fab in presence of PSMA” value was 0.0916.

These binders were tested against T1, PSMA Fab (assay: clonal phage ELISA; biotinylated PSMA Fab on neutravidin plate pre-incubated with PSMA antigen as competitor; anti-M13 HRP detection;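 also: crude clonal phage supernatants briefly incubated on wells preloaded with PSMA antigen in blocking buffer, or buffer only as control, bound phage detected with HRP-conjugated anti-M13 antibody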).
Method: as §1
YEKWCTPTWMCSWL [Phage-2446] was tested, and the “Phage binding ELISA signal, Anti-PSMA Fab in presence of PSMA” value was 0.218.
In the case of EVKWCIPAWMCVED [Phage-2444], the “Phage binding ELISA signal, Anti-PSMA Fab in presence of PSMA” value is reported as 0.0892.
GAIWCIPQWMCAWN (cysteine pairing not given here; also: displayed as fusion to phage pIII) [Phage-2443] was tested, and the “Phage binding ELISA signal, Anti-PSMA Fab in presence of PSMA” value was 0.132.
In the case of VVKWCTPPWMCSVW [Phage-2450], the “Phage binding ELISA signal, Anti-PSMA Fab in presence of PSMA” value is reported as 0.104.
In the case of ESKWCIPEWMCEQR [Phage-2448], the “Phage binding ELISA signal, Anti-PSMA Fab in presence of PSMA” value is reported as 0.0688.
EEPWCIPSWMCALT (cysteine pairing not given here; also: displayed as fusion to phage pIII) [Phage-2449] was tested, and the “Phage binding ELISA signal, Anti-PSMA Fab in presence of PSMA” value was 0.0689.
In the case of LERWCIPSWMCTED [Phage-2445], the “Phage binding ELISA signal, Anti-PSMA Fab in presence of PSMA” value is reported as 0.0674.
For IEKWCTPPWMCLDH [Phage-2447], the “Phage binding ELISA signal, Anti-PSMA Fab in presence of PSMA” value was 0.0663.
